This is an account of results in patent publication US9193965B2, “Acetolactate synthase having 2-ketoisovalerate decarboxylase activity and uses thereof” (The Regents of the University of California, priority 2010, dated 2015).

Substrate in the series: CC(=O)C(=O)O
Nature of the series: purified protein, by the assay type. The note with it: pH 7.0, 37° C., 0.1 mM TPP, ± standard deviation.

Protocol: The wild type AlsS and AlsS variants were synthesized from a His-tag plasmid in E. coli strain BL21 Star™ (DE3) (Invitrogen (Carlsbad, Calif.)) followed by purification with Ni-nitrilotriacetic acid (NTA) spin columns (Qiagen (Valencia, Calif.)). Protein concentrations were determined by the Bradford assay (Bio-Rad (Hercules, Calif.)).
Als enzyme activity. An enzyme assay for Als activity of AlsS was carried out in 1 ml of morpholinepropanesulfonic acid (MOPS) buffer (pH 7.0) containing 80 nM AlsS, 100 mM MOPS (pH 7.0), 1 mM MgCl2, 0.1 mM TPP, 10 mM acetate, and various concentrations of pyruvate at 37° C. for 10 min. The reaction was terminated by acidification of the solution with 0.1 ml of 50% H2SO4. The mixture was incubated for an additional 25 min at 37° C. to allow for the acid hydrolysis of the acetolactate to acetoin. […] One unit of enzyme activity was defined as the amount of enzyme that converts 1 μmol of substrate into product in 1 minute under these conditions. The Km values for pyruvate and the Vmax were extrapolated after nonlinear regression of the experimental points with the Gauss-Newton method using Matlab.

B1: Bacillus subtilis acetolactate synthase AlsS, wild type (Q at residue 487), SEQ ID NO: 2 (Bacillus subtilis subsp. subtilis str. 168) (protein)
chain: VLTKATKEQKSLVKNRGAELVVDCLVEQGVTHVFGIPGAKIDAVFDALQDKGPEIIVARHEQNAAFMAQAVGRLTGKPGVVLVTSGPGASNLATGLLTANTEGDPVVALAGNVIRADRLKRTHQSLDNAALFQPITKYSVEVQDVKNIPEAVTNAFRIASAGQAGAAFVSFPQDVVNEVTNTKNVRAVAAPKLGPAADDAISAAIAKIQTAKLPVVLVGMKGGRPEAIKAVRKLLKKVQLPFVETYQAAGTLSRDLEDQYFGRIGLFRNQPGDLLLEQADVVLTIGYDPIEYDPKFWNINGDRTIIHLDEIIADIDHAYQPDLELIGDIPSTINHIEHDAVKVEFAEREQKILSDLKQYMHEGEQVPADWKSDRAHPLEIVKELRNAVDDHVTVTCDIGSHAIWMSRYFRSYEPLTLMISNGMQTLGVALPWAIGASLVKPGEKVVSVSGDGGFLFSAMELETAVRLKAPIVHIVWNDSTYDMVAFQQLKKYNRTSAVDFGNIDIVKYAESFGATGLRVESPDQLADVLRQGMNAEGPVIIDVPVDYSDNINLASDKLPKEFGELMKTKAL
B1: under “other: wild type”, the Km is on record as 13.6 ± 0.8 mM and the kcat amounted to 121 ± 13 s⁻¹.

B2: Bacillus subtilis acetolactate synthase AlsS variant Q487G (Bacillus subtilis subsp. subtilis str. 168; Q486G) (protein)
chain: VLTKATKEQKSLVKNRGAELVVDCLVEQGVTHVFGIPGAKIDAVFDALQDKGPEIIVARHEQNAAFMAQAVGRLTGKPGVVLVTSGPGASNLATGLLTANTEGDPVVALAGNVIRADRLKRTHQSLDNAALFQPITKYSVEVQDVKNIPEAVTNAFRIASAGQAGAAFVSFPQDVVNEVTNTKNVRAVAAPKLGPAADDAISAAIAKIQTAKLPVVLVGMKGGRPEAIKAVRKLLKKVQLPFVETYQAAGTLSRDLEDQYFGRIGLFRNQPGDLLLEQADVVLTIGYDPIEYDPKFWNINGDRTIIHLDEIIADIDHAYQPDLELIGDIPSTINHIEHDAVKVEFAEREQKILSDLKQYMHEGEQVPADWKSDRAHPLEIVKELRNAVDDHVTVTCDIGSHAIWMSRYFRSYEPLTLMISNGMQTLGVALPWAIGASLVKPGEKVVSVSGDGGFLFSAMELETAVRLKAPIVHIVWNDSTYDMVAFGQLKKYNRTSAVDFGNIDIVKYAESFGATGLRVESPDQLADVLRQGMNAEGPVIIDVPVDYSDNINLASDKLPKEFGELMKTKAL
In the case of B2, where the note is “other: Q487G”, the Km is reported as 1.6 ± 0.4 mM and the kcat is 11 ± 5 s⁻¹.

B3: Bacillus subtilis acetolactate synthase AlsS variant Q487A, SEQ ID NO: 10 (Bacillus subtilis subsp. subtilis str. 168; Q486A) (protein)
chain: VLTKATKEQKSLVKNRGAELVVDCLVEQGVTHVFGIPGAKIDAVFDALQDKGPEIIVARHEQNAAFMAQAVGRLTGKPGVVLVTSGPGASNLATGLLTANTEGDPVVALAGNVIRADRLKRTHQSLDNAALFQPITKYSVEVQDVKNIPEAVTNAFRIASAGQAGAAFVSFPQDVVNEVTNTKNVRAVAAPKLGPAADDAISAAIAKIQTAKLPVVLVGMKGGRPEAIKAVRKLLKKVQLPFVETYQAAGTLSRDLEDQYFGRIGLFRNQPGDLLLEQADVVLTIGYDPIEYDPKFWNINGDRTIIHLDEIIADIDHAYQPDLELIGDIPSTINHIEHDAVKVEFAEREQKILSDLKQYMHEGEQVPADWKSDRAHPLEIVKELRNAVDDHVTVTCDIGSHAIWMSRYFRSYEPLTLMISNGMQTLGVALPWAIGASLVKPGEKVVSVSGDGGFLFSAMELETAVRLKAPIVHIVWNDSTYDMVAFAQLKKYNRTSAVDFGNIDIVKYAESFGATGLRVESPDQLADVLRQGMNAEGPVIIDVPVDYSDNINLASDKLPKEFGELMKTKAL
On to B3, for which, for the setting “other: Q487A”, the Km is 8.7 ± 0.5 mM and the kcat came out at 58 ± 8 s⁻¹.

B4: Bacillus subtilis acetolactate synthase AlsS variant Q487S (Bacillus subtilis subsp. subtilis str. 168; Q486S) (protein)
chain: VLTKATKEQKSLVKNRGAELVVDCLVEQGVTHVFGIPGAKIDAVFDALQDKGPEIIVARHEQNAAFMAQAVGRLTGKPGVVLVTSGPGASNLATGLLTANTEGDPVVALAGNVIRADRLKRTHQSLDNAALFQPITKYSVEVQDVKNIPEAVTNAFRIASAGQAGAAFVSFPQDVVNEVTNTKNVRAVAAPKLGPAADDAISAAIAKIQTAKLPVVLVGMKGGRPEAIKAVRKLLKKVQLPFVETYQAAGTLSRDLEDQYFGRIGLFRNQPGDLLLEQADVVLTIGYDPIEYDPKFWNINGDRTIIHLDEIIADIDHAYQPDLELIGDIPSTINHIEHDAVKVEFAEREQKILSDLKQYMHEGEQVPADWKSDRAHPLEIVKELRNAVDDHVTVTCDIGSHAIWMSRYFRSYEPLTLMISNGMQTLGVALPWAIGASLVKPGEKVVSVSGDGGFLFSAMELETAVRLKAPIVHIVWNDSTYDMVAFSQLKKYNRTSAVDFGNIDIVKYAESFGATGLRVESPDQLADVLRQGMNAEGPVIIDVPVDYSDNINLASDKLPKEFGELMKTKAL
As to B4, where the note is “other: Q487S”, the Km was determined as 1.1 ± 0.6 mM and the kcat was 11 ± 6 s⁻¹.

A word on the Km: it is the substrate concentration at which the rate is half of its maximum. As usually defined, the kcat is the maximal rate divided by the concentration of active sites.
